# Assay results: the supplement of paper PMC10065799, “High-throughput profiling of sequence recognition by tyrosine kinases and SH2 domains using bacterial peptide display” (eLife, 2023)
# What was measured:
# c-Src = assay: phosphorylation enrichment, bacterial display (enrichment ratio); higher = better substrate or ligand; peptides without Tyr show the background
# c-Abl (mouse) = assay: as above
# Hck = Hck (UniProt P08631); assay: as above
# MERTK = MERTK (UniProt Q12866); assay: as above
# AncSZ = assay: as above
# EPHB2 = EPHB2 (UniProt P29323); assay: as above
# Fyn = Fyn (UniProt P06241); assay: as above
# Fes = Fes (UniProt P07332); assay: as above
# Jak2 = Jak2 (UniProt O60674); assay: as above
# FGFR1 = FGFR1 (UniProt P11362); assay: as above
# FGFR3 = FGFR3 (UniProt P22607); assay: as above
# EPHB1 = EPHB1 (UniProt P54762); assay: as above
# Fer (mouse) = assay: as above
# SHP2-C SH2 = assay: SH2 binding enrichment of the phosphorylated peptide, bacterial display (enrichment ratio); higher = better substrate or ligand; peptides without Tyr show the background
# c-Src SH2 = assay: as above
# Grb2 SH2 = Grb2 SH2 (UniProt P62993); assay: as above
# 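Wherever SH2 binding enrichment of the phosphorylated peptide, bacterial display is given: peptide library displayed on the E. coli surface as eCPX fusions, selected cells deep-sequenced, score is each peptide's frequency after selection divided by its frequency in the input.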
# 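Wherever phosphorylation enrichment, bacterial display is given: 11-residue human phosphosite peptides and single-mutation variants displayed on the E. coli surface, counted by deep sequencing, each peptide's frequency after selection divided by its frequency in the unselected input library; frequency after pTyr selection over input frequency; kinase dosed for 20-30% of maximal phosphorylation in three min.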
# Sequence of FGFR3 (P22607 whole entry, looked up): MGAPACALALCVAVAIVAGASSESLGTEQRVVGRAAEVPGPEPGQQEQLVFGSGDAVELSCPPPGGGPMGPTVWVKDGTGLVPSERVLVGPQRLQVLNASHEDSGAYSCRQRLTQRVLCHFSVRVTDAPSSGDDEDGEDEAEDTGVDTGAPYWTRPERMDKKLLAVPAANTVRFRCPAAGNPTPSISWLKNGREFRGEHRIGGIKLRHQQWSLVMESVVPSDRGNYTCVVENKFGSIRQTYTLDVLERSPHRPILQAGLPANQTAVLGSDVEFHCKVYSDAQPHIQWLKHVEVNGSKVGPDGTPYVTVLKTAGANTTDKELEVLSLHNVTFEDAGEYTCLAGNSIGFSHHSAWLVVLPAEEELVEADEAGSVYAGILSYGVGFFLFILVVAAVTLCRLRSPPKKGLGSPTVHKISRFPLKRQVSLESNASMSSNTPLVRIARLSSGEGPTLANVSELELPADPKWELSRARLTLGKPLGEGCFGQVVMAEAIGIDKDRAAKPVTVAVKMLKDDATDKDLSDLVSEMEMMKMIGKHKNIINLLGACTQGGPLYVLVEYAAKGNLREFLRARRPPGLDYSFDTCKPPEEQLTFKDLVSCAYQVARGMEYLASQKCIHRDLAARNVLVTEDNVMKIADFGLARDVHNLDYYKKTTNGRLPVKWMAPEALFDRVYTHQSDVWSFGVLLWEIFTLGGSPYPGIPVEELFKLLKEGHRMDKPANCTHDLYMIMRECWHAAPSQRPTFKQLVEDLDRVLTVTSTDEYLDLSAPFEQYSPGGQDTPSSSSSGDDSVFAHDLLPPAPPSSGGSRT
# Sequence of MERTK (Q12866 whole entry, looked up): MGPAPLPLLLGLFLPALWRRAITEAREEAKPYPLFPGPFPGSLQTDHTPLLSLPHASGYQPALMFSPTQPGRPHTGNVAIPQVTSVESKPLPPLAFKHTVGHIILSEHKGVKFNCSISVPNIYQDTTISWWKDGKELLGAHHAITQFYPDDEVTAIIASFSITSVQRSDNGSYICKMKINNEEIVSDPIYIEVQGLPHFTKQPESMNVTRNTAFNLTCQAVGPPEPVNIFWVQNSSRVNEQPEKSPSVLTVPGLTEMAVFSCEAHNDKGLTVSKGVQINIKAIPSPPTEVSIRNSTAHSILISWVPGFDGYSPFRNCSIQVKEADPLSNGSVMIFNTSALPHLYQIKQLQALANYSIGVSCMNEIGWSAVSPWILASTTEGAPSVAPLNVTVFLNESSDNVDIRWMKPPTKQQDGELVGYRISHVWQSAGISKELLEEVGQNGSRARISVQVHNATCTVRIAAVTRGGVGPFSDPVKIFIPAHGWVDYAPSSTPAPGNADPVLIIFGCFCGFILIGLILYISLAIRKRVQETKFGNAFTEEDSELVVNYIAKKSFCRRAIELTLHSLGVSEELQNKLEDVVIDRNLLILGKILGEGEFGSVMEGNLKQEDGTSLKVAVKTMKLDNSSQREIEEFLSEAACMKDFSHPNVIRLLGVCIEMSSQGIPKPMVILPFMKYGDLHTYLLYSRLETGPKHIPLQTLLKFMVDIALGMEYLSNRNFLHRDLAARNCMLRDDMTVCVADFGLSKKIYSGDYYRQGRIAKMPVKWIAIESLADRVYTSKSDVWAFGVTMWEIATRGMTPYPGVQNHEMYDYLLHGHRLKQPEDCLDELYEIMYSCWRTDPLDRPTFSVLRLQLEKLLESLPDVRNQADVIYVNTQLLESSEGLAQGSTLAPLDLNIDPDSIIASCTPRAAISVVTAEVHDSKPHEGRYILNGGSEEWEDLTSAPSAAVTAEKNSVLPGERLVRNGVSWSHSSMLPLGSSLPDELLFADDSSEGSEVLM
# Sequence of Fes (P07332 whole entry, looked up): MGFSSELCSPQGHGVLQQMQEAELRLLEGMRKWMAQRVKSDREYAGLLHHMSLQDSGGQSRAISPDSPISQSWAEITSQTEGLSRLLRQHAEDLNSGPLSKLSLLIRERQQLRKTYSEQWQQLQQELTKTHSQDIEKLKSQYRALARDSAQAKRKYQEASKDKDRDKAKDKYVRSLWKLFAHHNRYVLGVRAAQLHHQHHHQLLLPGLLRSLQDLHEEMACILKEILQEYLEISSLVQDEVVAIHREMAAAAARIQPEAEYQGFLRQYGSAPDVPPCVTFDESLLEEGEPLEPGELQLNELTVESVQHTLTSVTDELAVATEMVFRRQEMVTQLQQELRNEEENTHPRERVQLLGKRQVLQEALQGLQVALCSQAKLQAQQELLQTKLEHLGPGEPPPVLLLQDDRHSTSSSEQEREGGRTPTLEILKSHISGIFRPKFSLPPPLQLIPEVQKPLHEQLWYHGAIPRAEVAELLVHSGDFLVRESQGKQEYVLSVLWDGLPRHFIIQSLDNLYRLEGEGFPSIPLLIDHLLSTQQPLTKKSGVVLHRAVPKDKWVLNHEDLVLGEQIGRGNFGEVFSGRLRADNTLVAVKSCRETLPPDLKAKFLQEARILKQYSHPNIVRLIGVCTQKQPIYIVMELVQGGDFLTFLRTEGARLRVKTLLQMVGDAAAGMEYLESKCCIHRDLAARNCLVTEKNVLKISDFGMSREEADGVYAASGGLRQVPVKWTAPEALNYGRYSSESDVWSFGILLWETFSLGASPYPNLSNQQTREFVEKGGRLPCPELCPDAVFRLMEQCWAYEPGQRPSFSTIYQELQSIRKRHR
# Sequence of Hck (P08631 whole entry, looked up): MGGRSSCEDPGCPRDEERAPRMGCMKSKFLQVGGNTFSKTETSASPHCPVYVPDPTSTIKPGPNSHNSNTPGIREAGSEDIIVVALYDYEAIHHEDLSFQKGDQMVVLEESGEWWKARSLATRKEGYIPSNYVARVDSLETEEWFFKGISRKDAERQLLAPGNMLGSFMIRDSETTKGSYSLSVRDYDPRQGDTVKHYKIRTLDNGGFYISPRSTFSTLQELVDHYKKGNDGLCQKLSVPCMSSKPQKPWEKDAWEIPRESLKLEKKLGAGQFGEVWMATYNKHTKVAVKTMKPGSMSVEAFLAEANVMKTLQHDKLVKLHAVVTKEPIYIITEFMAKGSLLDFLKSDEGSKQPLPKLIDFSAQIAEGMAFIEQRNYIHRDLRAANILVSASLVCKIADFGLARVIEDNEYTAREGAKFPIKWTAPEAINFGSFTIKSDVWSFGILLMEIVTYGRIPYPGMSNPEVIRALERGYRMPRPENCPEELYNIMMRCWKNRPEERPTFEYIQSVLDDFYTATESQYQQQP
# Sequence of EPHB2 (P29323 whole entry, looked up): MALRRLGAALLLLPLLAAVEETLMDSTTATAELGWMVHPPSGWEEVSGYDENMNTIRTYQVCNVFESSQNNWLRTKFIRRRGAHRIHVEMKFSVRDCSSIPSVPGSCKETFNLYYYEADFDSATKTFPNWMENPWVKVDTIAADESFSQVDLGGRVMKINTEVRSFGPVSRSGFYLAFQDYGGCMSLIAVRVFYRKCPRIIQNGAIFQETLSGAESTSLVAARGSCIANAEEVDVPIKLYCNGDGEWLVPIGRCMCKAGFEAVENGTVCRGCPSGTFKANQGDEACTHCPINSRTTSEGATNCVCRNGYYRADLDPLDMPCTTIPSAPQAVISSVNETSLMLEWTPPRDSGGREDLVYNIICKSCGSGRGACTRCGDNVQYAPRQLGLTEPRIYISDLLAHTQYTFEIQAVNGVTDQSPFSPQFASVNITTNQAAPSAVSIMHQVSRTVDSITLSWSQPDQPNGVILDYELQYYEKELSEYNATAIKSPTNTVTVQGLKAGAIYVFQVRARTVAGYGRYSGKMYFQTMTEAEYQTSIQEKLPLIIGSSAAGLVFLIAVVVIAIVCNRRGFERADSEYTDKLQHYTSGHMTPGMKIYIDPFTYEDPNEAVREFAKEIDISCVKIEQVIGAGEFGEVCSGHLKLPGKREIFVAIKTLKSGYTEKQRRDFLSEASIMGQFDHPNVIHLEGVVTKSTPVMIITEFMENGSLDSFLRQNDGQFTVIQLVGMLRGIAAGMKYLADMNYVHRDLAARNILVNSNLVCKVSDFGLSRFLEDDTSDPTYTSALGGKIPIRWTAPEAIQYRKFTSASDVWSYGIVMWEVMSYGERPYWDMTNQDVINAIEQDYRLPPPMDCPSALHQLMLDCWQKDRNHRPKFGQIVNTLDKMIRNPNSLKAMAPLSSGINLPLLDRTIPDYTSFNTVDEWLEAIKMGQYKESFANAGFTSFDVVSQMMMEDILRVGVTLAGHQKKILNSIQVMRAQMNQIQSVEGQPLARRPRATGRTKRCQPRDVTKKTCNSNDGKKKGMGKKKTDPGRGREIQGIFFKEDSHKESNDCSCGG
# Sequence of FGFR1 (P11362 whole entry, looked up): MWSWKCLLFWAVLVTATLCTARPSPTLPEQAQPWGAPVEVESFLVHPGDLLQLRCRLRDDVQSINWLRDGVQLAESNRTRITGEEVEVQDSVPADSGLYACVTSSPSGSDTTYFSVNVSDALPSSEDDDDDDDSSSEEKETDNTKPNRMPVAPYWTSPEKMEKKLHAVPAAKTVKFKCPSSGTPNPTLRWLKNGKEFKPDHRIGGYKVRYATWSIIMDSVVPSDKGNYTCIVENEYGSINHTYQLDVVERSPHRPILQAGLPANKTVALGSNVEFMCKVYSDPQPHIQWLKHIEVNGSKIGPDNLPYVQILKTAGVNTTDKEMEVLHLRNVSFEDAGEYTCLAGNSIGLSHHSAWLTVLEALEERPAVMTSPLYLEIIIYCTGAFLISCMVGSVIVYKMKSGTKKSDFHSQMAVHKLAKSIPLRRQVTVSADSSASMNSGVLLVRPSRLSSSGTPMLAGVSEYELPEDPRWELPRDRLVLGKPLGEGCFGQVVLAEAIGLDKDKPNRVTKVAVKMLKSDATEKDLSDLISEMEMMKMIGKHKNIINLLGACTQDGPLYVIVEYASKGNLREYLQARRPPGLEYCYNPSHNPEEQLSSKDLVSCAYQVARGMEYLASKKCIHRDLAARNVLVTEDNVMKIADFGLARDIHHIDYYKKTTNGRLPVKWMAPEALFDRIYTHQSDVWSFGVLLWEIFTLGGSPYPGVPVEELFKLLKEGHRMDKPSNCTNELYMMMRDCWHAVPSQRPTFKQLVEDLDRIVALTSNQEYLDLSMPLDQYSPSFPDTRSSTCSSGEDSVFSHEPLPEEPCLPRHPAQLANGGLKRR
Sequence,SH2 binding enrichment (SHP2-C SH2),SH2 binding enrichment (c-Src SH2),SH2 binding enrichment (Grb2 SH2),phosphorylation enrichment (c-Src),phosphorylation enrichment (c-Abl (mouse)),phosphorylation enrichment (Hck),phosphorylation enrichment (MERTK),phosphorylation enrichment (AncSZ),phosphorylation enrichment (EPHB2),phosphorylation enrichment (Fyn),phosphorylation enrichment (Fes),phosphorylation enrichment (Jak2),phosphorylation enrichment (FGFR1),phosphorylation enrichment (FGFR3),phosphorylation enrichment (EPHB1),phosphorylation enrichment (Fer (mouse))
AKVKPYVNGTS [IBTK_Y1064],0.878,0.559,1.11,0.412,0.778,0.402,0.357,0.606,0.419,0.486,0.559,0.58,0.421,0.47,0.41,0.461
ALAHKYRGGGG [HBD_Y146_H147R],0.598,0.535,0.804,0.432,0.471,0.333,0.309,0.404,0.362,0.335,0.495,0.351,0.422,0.364,0.311,0.315
ALVFLYFCIIF [SIGLEC12_Y494],1.48,1.36,1.91,0.741,0.957,0.964,0.636,1.04,0.483,0.552,1.16,1.01,0.58,0.803,0.397,0.6
ANQDDHISFRH [IMP4_Y226_Y226H],0.512,0.502,1.02,0.611,0.912,0.501,0.453,0.852,0.497,0.419,0.903,0.833,0.456,0.535,0.518,0.416
ARGMEYLASKN [FGFR1_Y613_K618N],0.557,0.524,1.03,0.394,0.385,0.337,0.355,0.452,0.32,0.327,0.511,0.463,0.407,0.447,0.285,0.271

# More lines, main results first:
SH2 binding enrichment (SHP2-C SH2),SH2 binding enrichment (c-Src SH2),SH2 binding enrichment (Grb2 SH2),Sequence,phosphorylation enrichment (c-Src),phosphorylation enrichment (c-Abl (mouse)),phosphorylation enrichment (Hck),phosphorylation enrichment (MERTK),phosphorylation enrichment (AncSZ),phosphorylation enrichment (EPHB2),phosphorylation enrichment (Fyn),phosphorylation enrichment (Fes),phosphorylation enrichment (Jak2),phosphorylation enrichment (FGFR1),phosphorylation enrichment (FGFR3),phosphorylation enrichment (EPHB1),phosphorylation enrichment (Fer (mouse))
0.51,0.395,0.607,ALTRSYIRERV [CYP2C8_Y243_K247R],0.451,0.458,0.493,0.391,0.768,0.457,0.334,0.536,0.58,0.421,0.423,0.373,0.373
0.659,0.412,0.713,ANSSFYSTRSA [NUMA1_Y1836],0.468,0.644,1.07,0.523,0.56,0.365,0.513,0.568,0.575,0.425,0.41,0.405,0.356
0.5,3.98,0.878,APTSGYQEFIH [IL4R_Y575_V579I],0.442,0.527,0.461,0.429,0.717,0.582,0.504,0.82,0.684,0.572,0.679,0.424,0.416
0.307,1.35,0.909,LVKDGYQTAQP [CSF1R_Y873_M875T],1.29,0.544,,,,,,,1.27,,,,
